Sequences and labels used below:
B1: MGC-018 (antibody, human IgG1, kappa, V domains shown)
VH: EVQLVESGGGLVKPGGSLRLSCAASGFTFSSYGMSWVRQAPGKGLEWVATINSGGSNTYYPDSLKGRFTISRDNAKNSLYLQMNSLRAEDTAVYYCARHDGGAMDYWGQGTTVTVSS
VL: DIQMTQSPSSLSASVGDRVTITCRASESIYSYLAWYQQKPGKAPKLLVYNTKTLPEGVPSRFSGSGSGTDFTLTISSLQPEDFATYYCQHHYGTPPWTFGQGTRLEIKR
B2: hz17A3-14 (antibody, human IgG1, kappa, V domains shown)
VH: EVQLVQSGAEVKKPGASVKVSCKASGYTFTDYALHWVRQAPGQGLEWMGLINTYSSNTNYNQKFKDRVTMTRDTSISTAYMELSRLRSEDTAVYYCARGITAVVGTRYYAMDYWGQGTLVTVSS
VL: EIVLTQSPGTLSLSPGERATLSCRASQSISNNLHWYQQKPGQAPRLLIKYTSQSISGIPDRFSGSGSGTDFTLTISRLEPEDFAVYYCQQSYSWPLTFGGGTKVEIKR
B3: Enoblituzumab (antibody, human IgG1, kappa, V domains shown)
VH: EVQLVESGGGLVQPGGSLRLSCAASGFTFSSFGMHWVRQAPGKGLEWVAYISSDSSAIYYADTVKGRFTISRDNAKNSLYLQMNSLRDEDTAVYYCGRGRENIYYGSRLDYWGQGTTVTVSS
VL: DIQLTQSPSFLSASVGDRVTITCKASQNVDTNVAWYQQKPGKAPKALIYSASYRYSGVPSRFSGSGSGTDFTLTISSLQPEDFATYYCQQYNNYPFTFGQGTKLEIKR
B4: ch17A3 (antibody, human IgG1, V domains shown)
VH: QVQLQQSGPELVRPGVSVKISCKGSGYTFTDYALHWVKQSHAKSPQWIGLINTYSSNTNYNQKFKDKATMTVDKSSSTAYMELARLTSEDSAIYYCARGITAVVGTRYYAMDYWGQGTSVTVSS
VL: NIVLTQSPTTLSVTPGDTVSLSCRASQSISNNLHWYQQRSHESPRLIIKYTSQNISGIPSRFSGSGSGTDFTLSINSVETEDFGMYFCQQSYSWPLTFGAGTKLELKR
B5: ch10B4 (antibody, human IgG1, V domains shown)
VH: EVQLQQSGPELVKPGASVKISCKTSGYTFTEYIMHWVKQSHGKSLEWIGGINPNNGGTTYNQKFKGKATLTVDKSSSTAYMELRSLTSEDSAVYYCARKGKDYFDWYFDVWGAGTTVTVSS
VL: QIVLTQSPTIMSASPGEKVTMTCSASSSVSYMHWYQQKSGTSPKRWIYDTSKLASGVPARFSGSGSGTSYSLTISSMEAEDAATYYCQQWSSNPLTFGAGTKLELK
B6: ch9B11 (antibody, human IgG1, V domains shown)
VH: EVQLQQSGPELVRPGVSVKISCKGSGYSFTDYAIHWVKQSHAMSLEWIGIINTYYGNTNYNQKFKGKATMTVDKSSSTAYMELARLTSADSAIYYCARSTTTATFYWYFDVWGAGTTVSVSS
VL: DIVLTQSPVTLSVTPGDSVSLSCRASQSINNNLHWYQQKPHESPRLLIKYASQSISGIPSRFSGSGSGTDFTLSFNSVETEDFGMYFCQQSHSWPYTFGGGTKLEIK

The target of one test is human B7-H3 naturally expressed on the surface of tumor cells (human) (UniProt Q5ZPR3). Description: FACS on SKVO3 cells.
Sequence of human B7-H3 naturally expressed on the surface of tumor cells (human) (Q5ZPR3 29-534): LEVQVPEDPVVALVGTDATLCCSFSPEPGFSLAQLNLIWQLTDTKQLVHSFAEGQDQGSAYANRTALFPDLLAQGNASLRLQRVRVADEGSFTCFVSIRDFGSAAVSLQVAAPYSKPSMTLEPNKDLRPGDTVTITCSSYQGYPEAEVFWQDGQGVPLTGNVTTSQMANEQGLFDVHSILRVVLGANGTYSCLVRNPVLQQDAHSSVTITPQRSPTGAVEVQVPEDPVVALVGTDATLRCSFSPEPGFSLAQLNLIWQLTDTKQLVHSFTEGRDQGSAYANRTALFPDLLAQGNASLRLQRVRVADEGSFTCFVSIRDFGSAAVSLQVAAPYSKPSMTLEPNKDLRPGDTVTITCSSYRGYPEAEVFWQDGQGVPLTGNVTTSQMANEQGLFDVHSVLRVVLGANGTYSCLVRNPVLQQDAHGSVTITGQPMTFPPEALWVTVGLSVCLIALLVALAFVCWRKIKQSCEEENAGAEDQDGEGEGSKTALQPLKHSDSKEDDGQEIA
Usually EC50 stands for the midpoint of the concentration-response curve. A low value points to an effect from little substance. B1 returned an EC50 of 0.0565 µg/mL.
The same measure, in the same setting: to B2 belongs 0.0441 µg/mL.
Still for that read-out and setting: to B3 belongs 0.191 µg/mL.

The target is the same in a further test. As to the kind of experiment: FACS on A431 cells.
As for B4, the EC50 is 0.101 µg/mL.
Same read-out and setting: for B5 the value was 0.203 µg/mL.
On the same count and under the same terms, to B6 belongs 0.137 µg/mL; to B3, 0.374 µg/mL.

The record behind these values is patent US20250269047A1.
